# Source: the RNAGym collection of RNA variant scans (doi:10.1021/acssynbio.7b00057)
# B1: Pistol ribozyme (parent)
# chain: GGGUCGUUGUUCCAUAAUCGCGUGGAUAUGGCACGCAAGUUUCUACCGGGCACCGUAAAUGUCCGACUGGAGCCGUUCGGGCGGCUAUAAACAGACCUCAGGCCCGAAGCGUGGCGGCACCUGCCGCCGGUGGUAAAAAAGAUCGGAAGAGCACACGUCU
# Variants of: B1
# Assay: aptazyme ON/OFF ratio, guanine; higher = stronger switching; co-transcriptional cleavage with and without guanine
row,Variant,aptazyme ON/OFF ratio
1,U8G G9C U11A C12A C13A,1.07
2,U7A G9A U10C C12A C13A,1.13
3,U7C U8G G9C U11G C12A C13U,1.14
4,U7A G9A U10C U11G C12U,1.29
5,U7A U8C G9U U10A U11A C13A,1.17
6,U8A G9U C12U,1.46
7,U8A G9U C12G,1.18
8,U7G U8G U11A C12U C13U,1.15
9,U7C U8A U10C U11C,1.05
10,U8G G9U U10A C12G C13G,1.12
11,U7G G9C U10G C12G C13U,1.31
12,U7G U8A U10A U11C C12U C13A,1.18
13,U7C U8C G9C U11C C12U C13U,1.11
14,U7A U8G U10C U11A C13U,1.21
15,U7A U10A U11A C12A C13U,1.21
16,U7G U8G U10C U11A C12A C13A,1.08
17,U7A G9C U11A C12G C13G,1.08
18,U7C U8C G9A U11A,1.16
19,U7C U8C G9A U11G C12A C13G,1.25
20,U7C U10A U11A C13U,1.19
21,G9U U10C U11C C12G,1.12

row,Variant,aptazyme ON/OFF ratio
1,U7C G9C U10A C12U,1.06
2,U7C U8G G9C C12G C13U,1.18
3,U7A U8G G9U U10C U11A C12A C13G,1.37
4,U7A G9C U11A C12U C13U,1.16
5,U7A U8C G9C U10C C13G,1.07
6,U8A U11G C12G C13U,1.47
7,U7G U8G C12U C13G,1.39
8,U7G U8A G9C U11C,1.05
9,U7G U8G G9C U10C C12G C13G,1.09
10,U7C U8C G9C U10G U11A C12G,1.11
11,U8G G9C U10A C12U C13A,1.15
12,U7C U8G G9U U10A U11C C12G C13G,1.27
13,U7G G9U U10A U11A C12A C13U,1.38
14,U7A G9A U10A U11G C12U,1.17
15,U7G U8C G9C U10G C12G C13G,1.07
16,U7A U8A U10A U11C C12G,1.1
17,U8G G9A U10A C13G,1.08
18,U7C U8G G9A U11C C12U,1.11
19,U7G G9A U10G U11C C12A C13A,1.09
20,U8C U10G C12A C13A,1.11
21,U7A G9U U11C C13A,1.15

row,Variant,aptazyme ON/OFF ratio
1,U7C U10G U11C C12U C13A,1.28
2,U7G U8C G9A U10A C12U,1.62
3,U7A U8A G9U U10G U11G C12U C13G,1.24
4,U8G G9A C12A C13G,1.27
5,G9A U10C C12G C13G,1.23
6,U7G U8G G9A U10A C13U,1.37
7,U7A U8G U10C U11A C12G C13G,1.28
8,U7G G9C U10G C12U C13G,1.38
9,U7A U8A G9C U10C C12G C13A,0.99
10,U7A U8G G9U C12U C13U,1.26
11,U7A G9C U10G U11C C13A,1.06
12,U7A U8A U10G U11A C12G,1.34
13,U8C G9U U11A,1.35
14,U8G U10C U11G C13U,1.05
15,U7C U10A U11C C12G C13A,1.2
16,U8A U11A C13A,1.19
17,U7A U8G U10C U11C C12G C13A,1.07
18,U8C G9A U11A C12A C13G,1.13
19,U8A G9U U10G U11A C12U,1.05
20,U7A U8C G9A U10C U11C C13G,1
21,U7C U8G G9A U10G U11C C12U C13G,1.25

row,Variant,aptazyme ON/OFF ratio
1,U7C U8G G9A U11A C12G C13U,1.08
2,U7A U8G U10A U11G C13A,1.29
3,G9C U10A U11G C12A,1.06
4,U7C U10A U11C,1.04
5,U7C U8G G9A U10G C12U C13A,1.46
6,U7A U8A G9A U10A U11G C12G,1.16
7,U7G G9A U10C U11G C12G,1.15
8,U8A G9A U10A U11C C13U,1.05
9,U7A U10C U11G C12A C13G,1.23
10,U7C U8C G9A U10C U11C C12U C13A,1.2
11,U7C G9C U11A C12G C13U,1.14
12,U8G G9A U11G C12G C13U,1.23
13,U7G U8A G9U C12U,1.18
14,U8G G9U U10G U11A C12U C13U,1.06
15,U8G G9A U10G U11A C12A C13U,1.48
16,U7G U8C G9C U10G C12A C13G,1.1
17,U7C U8C G9U U11G C12A C13A,1.19
18,U8G G9A U10A C12A,1.32
19,U8G G9A U10A U11C C13G,1.04
20,U7G G9A U11G C12A C13A,1.06
